Molecular target: sodium taurocholate cotransporting polypeptide (NTCP) (UniProt Q14973)
Assay: cell-based or functional assay

Chain of UniProt Q14973 (Q14973 whole entry): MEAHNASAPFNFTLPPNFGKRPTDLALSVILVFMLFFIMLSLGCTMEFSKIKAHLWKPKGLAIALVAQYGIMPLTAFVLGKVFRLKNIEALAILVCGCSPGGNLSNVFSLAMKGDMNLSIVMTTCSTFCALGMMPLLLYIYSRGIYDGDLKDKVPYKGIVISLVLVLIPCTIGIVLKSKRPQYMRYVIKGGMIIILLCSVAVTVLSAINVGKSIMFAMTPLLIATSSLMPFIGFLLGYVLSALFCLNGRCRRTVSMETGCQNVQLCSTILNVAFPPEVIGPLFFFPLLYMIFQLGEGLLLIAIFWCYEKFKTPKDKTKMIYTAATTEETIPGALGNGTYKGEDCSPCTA

Substance: Myrcludex B (peptide)
- DsRed-positive CreC/CIR cells by FACS, day 7 after rHBV-CreN infection (MOI=250) with MyrB: < 1%
- DsRed-positive CreC/CIR cells by flow cytometry, day 10 after rHBV-CreN infection (MOI=300) with MyrB: < 1%
